# Laboratory results from PMC9741607, “Cryo-electron tomography reveals structural insights into the membrane remodeling mode of dynamin-like EHD filaments” (Nature Communications, 2022).
# Biological target: the molecule itself
# Test: cryo-EM structure; cryo-electron tomography and subtomogram averaging of EHD4^ΔN filaments on membrane tubes (liposomes of 50% Folch extract, 40% phosphatidylethanolamine, 10% cholesterol) with AMPPNP; pseudo-atomic model by rigid-body and flexible fitting
protein,measurement,value
"mouse EHD4 (residues 22-541, EHD4^ΔN) (domain or fragment, UniProt Q9EQP2 22-541, looked up, Eps15-homology domain containing protein 4 (EHD4), mouse, amino acids 22-541; N-terminal residues deleted; The fitted model covers residues 22-535; The His6 tag was removed with PreScission protease; also called N-terminal deletion construct of mouse EHD4; EHD4/Pincher; source: E. coli BL21(DE3)-Rosetta2, purified (NiNTA, Superdex 200); not shown: His6, N-terminal, cleaved) QTVTGGLRSLYQRKVLPLEEAYRFHEFHSPALEDADFENKPMILLVGQYSTGKTTFIRYLLEQDFPGMRIGPEPTTDSFIAVMYGETEGSTPGNALVVDPKKPFRKLSRFGNAFLNRFMCSQLPNQVLKSISIIDSPGILSGEKQRISRGYDFCQVLQWFAERVDRIILLFDAHKLDISDEFSEAIKAFRGQDDKIRVVLNKADQVDTQQLMRVYGALMWSLGKVINTPEVLRVYIGSFWAQPLQNTDNRRLFEAEAQDLFRDIQSLPQKAAVRKLNDLIKRARLAKVHAYIISYLKKEMPNMFGKENKKRELIYRLPEIYVQLQREYQISAGDFPEVKAMQEQLENYDFTKFHSLKPKLIEAVDNMLTNKISSLMGLISQEEMNMPTQMVQGGAFDGTTEGPFNQGYGEGAKEGADEEEWVVAKDKPVYDELFYTLSPINGKISGVNAKKEMVTSKLPNSVLGKIWKLADCDCDGMLDEEEFALAKHLIKIKLDGYELPNSLPPHLVPPSHRKSLPKAD",binding result,binds
